# Values quoted from earlier work in paper doi:10.1101/2020.11.23.394015.
# Target: Glu89 (UniProt position 105, IDALNENKVLV)
# Conditions: folded; closed-to-open EF loop (Tanford) transition
substance,measurement,value
beta-lactoglobulin (BBL) (Bos taurus),pKa,~ 7.3
